The subject of one data set is HCT15-hPDL1 cells. The data set can be described thus: cells. In kind it is cell-based, human. Conditions: 5 days exposure, read-out: HCT15-hPDL1 cell IC50. How it is done:
The cell line was named as HCT15-hPDL1.
(§1) The in vitro anti-tumor activity was determined by CellTiter-Glo® Luminescent Cell Viability Assay (Promega) according to the manufacturer's instructions. […] Untreated cells served as control. ADCs, antibodies, or payloads in 100 μL medium were added in duplicate at various concentrations with a 2-fold dilution series starting with concentrations of 1 uM, respectively. Cells were exposed to test articles for 5 days. Absorbance was measured at 450 nm by a microplate reader. The cell survival rate (%) was calculated using the following formula: sample/control×100%.

The test system of a further data set is PC3-hPDL1-hTROP2 cells. The data set can be described thus: cells. The note with it: 5 days exposure, read-out: PC3-hPDL1-hTROP2 cell IC50. In kind it is cell-based, human. How it is done:
as §1

The next data set deals with HCT15-hPDL1-hTROP2 cells. The data set can be described thus: In vitro cytotoxicity, HCT15-hPDL1-hTROP2 cells. The format is cell-based, human. Here is the method:
The cell line was named as HCT15-hPDL1-hTROP2.
as §1

A short description of data set [1]: Stability of SN-38 (lactone / lactone ring opening vs pH). The format is physicochemical. Here is the method: A hydrochloric acid solution with a pH of 4 and a sodium hydroxide solution with a pH of 10 were prepared respectively. 5 mg of SN-38 was dissolved in 5 mL of acetonitrile. The stability of SN-38 in a solution of changing pH (pH=10 to pH=4) was measured by shaking SN-38 at room temperature under pH=10 for 10 min, then adjusting the pH back to 4 and shake at room temperature for 10 min before sampling. SN-38 was then incubated at room temperature overnight (16 h) on a shaker and assayed afterwards.

Another data set has as its target CathepsinB (Homo sapiens, UniProt P07858). The data set can be described thus: Digestion of the drug-linkers by CathepsinB. Conditions: 125 nM enzyme, 62.5 μM drug-linker, pH 5.5, 37° C., 3 hours.
The subject of data set [2] is T1, uPA substrate peptide SEQ ID NO: 50.
T1 sequence: LSGRSDNH

For data set [3], the system named is T2, uPA substrate peptide SEQ ID NO: 54.
T2 sequence: GSGRNAQV

In data set [4] the test system is T3, uPA substrate peptide SEQ ID NO: 52.
T3 sequence: LGGSGRSANAILE

For data set [5], the system named is T4, uPA substrate peptide SEQ ID NO: 53.
T4 sequence: LGGSGRNAQVRLE

The test system of data set [6] is T5, uPA substrate peptide SEQ ID NO: 51.
T5 sequence: SGRSA

[7] abbreviates: alkaline conditions 10 minutes, then acidic conditions (pH 10→4) before testing.
The mark [8] stands for this setting: pH 10→4, after incubation overnight (16 h).

Like-named read-outs stand apart in the source and are kept apart here.

Sequence of Tissue-type Plasminogen Activator (tPA) (P00750 36-562): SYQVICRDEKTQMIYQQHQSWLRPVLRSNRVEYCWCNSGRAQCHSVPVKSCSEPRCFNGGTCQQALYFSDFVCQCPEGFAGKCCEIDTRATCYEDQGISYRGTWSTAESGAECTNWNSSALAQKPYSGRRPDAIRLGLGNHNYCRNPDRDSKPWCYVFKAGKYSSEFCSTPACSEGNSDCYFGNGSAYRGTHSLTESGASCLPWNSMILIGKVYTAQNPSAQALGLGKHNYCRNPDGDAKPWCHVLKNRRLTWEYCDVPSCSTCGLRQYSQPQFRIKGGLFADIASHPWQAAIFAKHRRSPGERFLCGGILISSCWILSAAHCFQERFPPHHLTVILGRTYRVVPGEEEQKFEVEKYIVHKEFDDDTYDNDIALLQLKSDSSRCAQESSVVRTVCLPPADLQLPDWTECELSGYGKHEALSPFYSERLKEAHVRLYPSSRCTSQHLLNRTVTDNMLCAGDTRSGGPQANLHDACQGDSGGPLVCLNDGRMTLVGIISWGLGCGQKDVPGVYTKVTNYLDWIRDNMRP
Procedure for CathepsinB: To simulate the release of drug under physiological conditions, the drug-linkers were subjected to cleavage by CathepsinB, after which an elimination reaction occurred and unmodified drug was released.
Lyophilized CathepsinB enzyme powder was dissolved in 130 μL of pure water, and divided into 13 tubes of 10 μL each. […] Activation buffer (20 mM sodium acetate, 30 mM DTT, 15 mM EDTA, pH 5.5) was then added to a tube of enzyme to activate the enzyme for 1 hour at room temperature.

Consider `CCc1c2c(nc3ccc(O)cc13)-c1cc3c(c(=O)n1C2)COC(=O)[C@]3(O)CC` [SN38, 7-ethyl-10-hydroxy-20(S)-camptothecin], for which the IC50 in the data set on HCT15-hPDL1 cells (Homo sapiens, 120 h) stood at 0.0112 µM; in the data set with PC3-hPDL1-hTROP2 cells (Homo sapiens, 120 h), 0.00869 µM; in the data set with HCT15-hPDL1-hTROP2 cells (Homo sapiens, 120 h, 5 days exposure, read-out: HCT15-hPDL1-hTROP2 cell IC50), 0.00957 µM. Besides, in the data set on HCT15-hPDL1-hTROP2 cells (HCT15-hPDL1-hTROP2 cells), the “Maximum Inhibitory Rate” value is reported as more than 99.9%. For the same compound, the existing as lactone in data set [1] (acidic conditions (pH 4)) came to 94%. In addition, the values for the lactone ring-opening products in [1] (setting [7]) and in [1] (setting [8]) were 42% and 13%, respectively. The “present in the form of lactone” value in data set [1] (setting [7]) worked out at 56%. The same compound gave a lactone ring-opened form in [1] (alkaline conditions (pH 10)) of 92%. Besides, in [1] (setting [8]), the “in the form of lactone” value came to 86%.

For “Glycine3-amido-PEG8-VC-PAB-DMAE-phenol linked SN38 [Compound of Formula (1)]”, the IC50 in the data set on PC3-hPDL1-hTROP2 cells is more than 0.25 µM. Further, the “Product released on CathepsinB digestion” value at CathepsinB is “SN38”.

On to “Glycine3-amido-PEG8-VC-PAB-DMAE-α-hydroxy lactone linked SN38 [Compound of Formula (2)]”, for which the IC50 in the data set on HCT15-hPDL1 cells worked out at 0.0381 µM; in the data set with PC3-hPDL1-hTROP2 cells, 0.0531 µM. Also, at CathepsinB, the “CathepsinB digestion” value is on record as “effectively digested”. Further, the “Product released on CathepsinB digestion” value at CathepsinB is listed as “SN38 derivatives”.

For the compound Tissue-type Plasminogen Activator (tPA), the Fluorescence Intensity, Fold of Increase, tPA digestion at 2.25 × 10^-2 mg/mL (FRET) worked out at 1.1 fold in data set [2]; 2.6 fold in data set [3]; 2.1 fold in data set [4]; 1.3 fold in data set [5]; 5.4 fold in data set [6]. The Fluorescence Intensity, Fold of Increase, tPA digestion at 7.5 × 10^-3 mg/mL (FRET) was found to be 0.63 fold in data set [2]; 0.91 fold in data set [3]; 1.2 fold in [4]; 0.73 fold in data set [5]; 2.1 fold in [6].

As to “Urokinase-type Plasminogen Activator (uPA)”, the Fluorescence Intensity, Fold of Increase, uPA cleavage (FRET) in [2] was 4.9 fold; in data set [3] it was 4.7 fold; in [4] it was 3.1 fold; in data set [5], 3 fold; in data set [6], 9.6 fold. Besides, the Fluorescence Intensity, Time to Reach Plateau (h), uPA cleavage (FRET) in data set [2] was found to be 1.7 h; in data set [3] it was 1.4 h; in data set [4] it was 1.4 h; in data set [5], 1.6 h; in data set [6] it was 1.8 h.
